Data taken from patent US9696316B2, “Conformationally dynamic peptides” (SYSTEM OF SYSTEMS ANALYTICS, INC., priority 2009, dated 2017).

Key:
Format in all cases: binding
Aβ42 Fiber = Aβ42 Fiber (Homo sapiens, UniProt P05067); experiment: In vitro centrifugation-based interaction assay (insoluble complexes); conditions: 40% TFE, 3 hours incubation, 17,000×g 30 minutes
Experimental: In this assay, soluble peptide probes are combined with insoluble target protein fibers in an in vitro centrifugation-based interaction assay. Peptide probe that binds to the target protein will be detected in an insoluble pellet, which may be isolated using centrifugation. […] Aβ42 Fiber (target protein) and peptide probe (SEQ ID NO:1) are incubated for 3 hours in the presence of increasing amounts of trifluoroethanol (TFE). The samples are centrifuged at 17,000×g for 30 minutes, and the pellets are denatured in sample buffer and analyzed by SDS-PAGE. Reference samples (Input) are shown for comparison.

Aβ fibers = Aβ fibers (Homo sapiens, UniProt P05067); experiment: Aβ fiber assay in 40% TFE; conditions: di-pyrene labeled
Chain of Aβ fibers (P05067 672-713 limits assumed): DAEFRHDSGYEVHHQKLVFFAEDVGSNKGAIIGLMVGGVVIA
From the text: An Aβ fiber assay may be conducted in an organic solvent, such as 40% TFE. […] This conformation is associated with the monomer or self fluorescence of the pyrene moieties (370-410 nm; see FIG. 6). […] This conformation is associated with the excimer fluorescence of the pyrene moieties (430-530 nm; see FIG. 6).

[1] = molecular target: biotinylated Aβ42 oligomers (Homo sapiens, UniProt P05067); experiment: In vitro affinity chromatography-based interaction assay (streptavidin beads); conditions: 4 μM probe
Chain of biotinylated Aβ42 oligomers (P05067 672-713 limits assumed): as above
Experimental: In this assay, soluble peptide probes are combined with, for example, soluble target protein oligomers in an in vitro affinity chromatography-based interaction assay. For this example, target protein is labeled with an affinity molecule, such as biotin, and incubated with a labeled peptide probe. After incubation, the mixture is incubated with the capture moiety, such as streptavidin, on a support, for example a column or beads, such that the target protein is captured. After washing of unbound material, the support can be examined for detection of the labeled peptide probe, which would indicate the presence of bound target protein-peptide probe complexes on the support. Alternatively, the bound material may be eluted and then examined for detection of the labeled peptide probe. Again, detection of the labeled peptide probe would indicate the presence of target protein-peptide probe complexes in the eluant. FIGS. 5A and 15A illustrate an affinity chromatography assay using biotin-labeled target protein and streptavidin-coated beads. This type of assay is useful, for example, for assessing the efficacy of a given peptide probe. […] The beads are washed with PBS to remove unbound material and the captured material is analyzed by SDS-PAGE. […] […]

Chain of Aβ42 Fiber (P05067 672-713 limits assumed): as above

## KLVFFAEDVGSNKGAIIGLMK (KLVFFAEDVGSNKGAIIGLMK) [SEQ ID NO:1, Aβ protein residues 16-35, with added C-Terminal Lys]
Aβ42 Fiber
  binding of peptide probe to Aβ42 fiber (peptide band in pellet, SDS-PAGE): binding of target protein and peptide probe is clearly observed
Aβ fibers
  conformation in the absence of Aβ fibers (CD, data not shown): primarily alpha helical
  conformation upon introduction of an Aβ fiber substrate (pyrene excimer fluorescence): adopts a β-sheet conformation
[1]
  capture of labeled peptide probe with biotinylated Aβ42 oligomer on streptavidin beads (SDS-PAGE): labeled peptide probe is only detected in the captured material, in the presence of high molecular weight oligomers
